# From patent US20230242956A1, “POLYPHOSPHATE KINASE MUTANT, ENGINEERED STRAIN AND APPLICATION THEREOF” (ZHEJIANG UNIVERSITY OF TECHNOLOGY, priority 2022, published 2023)
# Columns and labels:
# [1] = substrate: Nc1ncnc2c1ncn2[C@@H]1O[C@H](COP(=O)(O)O)[C@@H](O)[C@H]1O; assay: Kinetic parameters of wild-type ChPPK (pure enzyme, pseudo-one-substrate kinetic model, ATP by HPLC); format: biochemical, Cytophaga hutchinsonii; conditions: other: substrate AMP, fixed PPA 1.6 g/L, AMP 0-5.0 mM, pH 7.5, 37° C.
# Method: A PPK protein sequence derived from Cytophaga hutchinsonii (ChPPK, GenBank accession number: ABG57400.1) in GenBank was optimized for E. coli codon preference and fused to a C-terminal 6His tag. The resulting recombinant sequence of the gene ChPPK with a length of 930 bp was synthesized by Tsingke Biotechnology Co., Ltd. (Beijing, China), the nucleotide sequence is shown in SEQ ID NO: 1, and the amino acid sequence of the encoded protein is shown in SEQ ID NO: 2.
# (2) Pure enzyme: 5 mL of the crude enzyme solution was diluted with 40 mL of potassium phosphate buffer (20 mM, pH 7.2), and then applied to a HisTrap HP purification column of GE Healthcare (10 mL column, pre-washed with a pH 7.2, 20 mM potassium phosphate buffer containing 500 mM NaCl). […] The concentration of the pure enzyme was determined by Beyotime BCA Protein Assay Kit(P0012), and the amount of the pure enzyme used in the following examples was calculated by protein content.
# 0.4 mg of the crude enzyme solution prepared by the method in Example 2 or 0.05 mg of the pure enzyme, polyphosphoric acid (PPA) at a final concentration of 1.6 g/L, adenosine phosphate (AMP) at a final concentration of 2.25 mM, and MgCl2 at a final concentration of 10 mM were added to 10 mL of 50 mM potassium phosphate buffer (pH 7.5). […] The ATP content in the solution was determined by HPLC method. […]
# (§1) The wild-type Ecoli.BL21(DE3)-ChPPK constructed by the method of Example 1 and the engineered strain Ecoli.BL21(DE3)-ChPPK/A79G/S106C/I108F/L285P constructed by the method of Example 6 were used to prepare pure enzymes by the method of Example 2. Km and Kcat were calculated by pseudo-one-substrate kinetic model. […]
# [2] = substrate: Nc1ncnc2c1ncn2[C@@H]1O[C@H](COP(=O)(O)O)[C@@H](O)[C@H]1O; assay: Kinetic parameters of mutant ChPPK/A79G/S106C/I108F/L285P (pure enzyme, pseudo-one-substrate kinetic model, ATP by HPLC); format: biochemical, Cytophaga hutchinsonii; conditions: other: substrate AMP, fixed PPA 1.6 g/L, AMP 0-5.0 mM, pH 7.5, 37° C.
# Method: (2) Pure enzyme: 5 mL of the crude enzyme solution was diluted with 40 mL of potassium phosphate buffer (20 mM, pH 7.2), and then applied to a HisTrap HP purification column of GE Healthcare (10 mL column, pre-washed with a pH 7.2, 20 mM potassium phosphate buffer containing 500 mM NaCl). The resulting purification column was eluted with 100 mL of washing buffer (a pH7.2, 20 mM potassium phosphate buffer containing 500 mM sodium chloride and 50 mM imidazole) at a rate of 0.5 mL/min to remove the absorbed protein impurities, and then eluted with an elution buffer (a pH7.2, 20 mM potassium phosphate buffer containing 500 mM sodium chloride and 50 mM imidazole) at a speed of 0.5 mL/min to collect an elution solution containing the target protein. Then the elution solution containing the target protein was dialyzed in a dialysis bag (the MWCO of the dialysis bag was 14 KDa) with a pH7.2 of 20 mM potassium phosphate buffer for 48h, and the retentate was taken as pure enzyme. The concentration of the pure enzyme was determined by Beyotime BCA Protein Assay Kit(P0012), and the amount of the pure enzyme used in the following examples was calculated by protein content.
# 0.4 mg of the crude enzyme solution prepared by the method in Example 2 or 0.05 mg of the pure enzyme, polyphosphoric acid (PPA) at a final concentration of 1.6 g/L, adenosine phosphate (AMP) at a final concentration of 2.25 mM, and MgCl2 at a final concentration of 10 mM were added to 10 mL of 50 mM potassium phosphate buffer (pH 7.5). The reaction solution was incubated at 37° C. for 5 min, and then 10 mL of 0.2 M phosphoric acid solution was added to terminate the reaction. The ATP content in the solution was determined by HPLC method. […]
# as §1
protein,measurement,setting,value
"Cytophaga hutchinsonii polyphosphate kinase (ChPPK), wild-type, C-terminal 6His tag, SEQ ID NO: 2 (Cytophaga hutchinsonii ATCC 33406) (protein) MATDFSKLSKYVETLRVKPKQSIDLKKDFDTDYDHKMLTKEEGEELLNLGISKLSEIQEKLYASGTKSVLIVFQAMDAAGKDGTVKHIMTGLNPQGVKVTSFKVPSKIELSHDYLWRHYVALPATGEIGIFNRSHYENVLVTRVHPEYLLSEQTSGVTAIEQVNQKFWDKRFQQINNFEQHISENGTIVLKFFLHVSKKEQKKRFIERIELDTKNWKFSTGDLKERAHWKDYRNAYEDMLANTSTKQAPWFVIPADDKWFTRLLIAEIICTELEKLNLTFPTVSLEQKAELEKAKAELVAEKSSDHHHHHH",Km,[1],1660 ± 100 µM
same,kcat,[1],1.01 ± 0.05 s⁻¹
same,kcat/Km,[1],610 M⁻¹ s⁻¹
Cytophaga hutchinsonii polyphosphate kinase (ChPPK) mutant A79G/S106C/I108F/L285P (parent SEQ ID NO: 2) (Cytophaga hutchinsonii ATCC 33406; … (protein) MATDFSKLSKYVETLRVKPKQSIDLKKDFDTDYDHKMLTKEEGEELLNLGISKLSEIQEKLYASGTKSVLIVFQAMDAGGKDGTVKHIMTGLNPQGVKVTSFKVPCKFELSHDYLWRHYVALPATGEIGIFNRSHYENVLVTRVHPEYLLSEQTSGVTAIEQVNQKFWDKRFQQINNFEQHISENGTIVLKFFLHVSKKEQKKRFIERIELDTKNWKFSTGDLKERAHWKDYRNAYEDMLANTSTKQAPWFVIPADDKWFTRLLIAEIICTELEKLNLTFPTVSPEQKAELEKAKAELVAEKSSDHHHHHH,Km,[2],1670 ± 180 µM
same,kcat,[2],16.3 ± 1.78 s⁻¹
same,kcat/Km,[2],9780 M⁻¹ s⁻¹
